Assay results: US20050114927A1 (RUTGERS THE STATE UNIVERSITY, published 2005)

Molecular target: T1, Yeast wild-type ribosomal protein L3 (rpl3), in vitro synthesized, free form (Saccharomyces cerevisiae (yeast), UniProt P14126 1-387)
T1 construct: also called wild-type L3; radiolabeled L3
Assay: co-immunoprecipitation, isolated proteins in vitro

T1 sequence (P14126 whole entry): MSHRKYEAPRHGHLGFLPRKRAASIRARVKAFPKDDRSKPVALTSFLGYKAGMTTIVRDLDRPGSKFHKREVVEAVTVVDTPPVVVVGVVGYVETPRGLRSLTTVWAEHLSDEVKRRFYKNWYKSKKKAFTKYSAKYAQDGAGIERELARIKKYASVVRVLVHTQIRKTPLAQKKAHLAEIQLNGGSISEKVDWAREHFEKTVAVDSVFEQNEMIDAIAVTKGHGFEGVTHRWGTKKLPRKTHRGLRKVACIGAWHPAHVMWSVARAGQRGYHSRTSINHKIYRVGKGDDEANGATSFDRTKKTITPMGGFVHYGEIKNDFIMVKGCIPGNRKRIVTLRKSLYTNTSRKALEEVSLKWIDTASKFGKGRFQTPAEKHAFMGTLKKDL

B1: Pokeweed antiviral protein (PAP) (enzyme)
chain: VNTIIYNVGSTTISKYATFLNDLRNEAKDPSLKCYGIPMLPNTNTNPKYVLVELQGSNKKTITLMLRRNNLYVMGYSDPFETNKCRYHIFNDISGTERQDVETTLCPNANSRVSKNINFDSRYPTLESKAGVKSRSQVQLGIQILDSNIGKISGVMSFTEKTEAEFLLVAIQMVSEAARFKYIENQVKTNFNRAFNPNPKVLNLQETWGKISTAIHDAKNGVLPKPLELVDASGAKWIVLRVDEIKPDVALLNYVGGSCQTTY
notes: mature
B1: binds.
